# Where a chain is given by its changes, count along the chain named.
# B1: TEAD4-near (structured_DNA)
# DNA: CGGGCGGGCGAGGGGCCGGGC
# B2: TEAD4-full (structured_DNA)
# DNA: CGGGCGGGCGAGGGGCCGGGCCGCCGGGGCGGGGCGGGGCCGGGC
# B3: TEAD4-full-2TT (structured_DNA)
# DNA: B2 DNA with C21T, C22T, C24T, C25T
# B4: TEAD4-far (structured_DNA)
# DNA: CGGGGCGGGGCGGGGCCGGGC
# Experiments:
# Vimentin [1] = target: T1, Vimentin (human, UniProt P08670 1-466); experiment: EMSA; 150 mM KCl; 8 uM Vimentin, 500 nM DNA; 5 mM Tris pH 8.4, 150 mM KCl, 1 h at room temperature; 1.5% agarose in 1x TBE + 10 mM KCl, run at 4 C; conditions: protein: recombinant
# Vimentin [2] = target: T1, Vimentin; experiment: EMSA; DNA annealed in 150 mM KCl; 8 uM Vimentin, 500 nM DNA; 5 mM Tris pH 8.4, 150 mM KCl, 1 h at room temperature; 1.5% agarose in 1x TBE + 10 mM KCl, run at 4 C; conditions: protein: recombinant; parallel G4-repeat after annealing in 150 mM KCl
# Vimentin [3] = target: T1, Vimentin; experiment: EMSA; DNA annealed in 150 mM KCl; no free DNA left; 8 uM Vimentin, 500 nM DNA; 5 mM Tris pH 8.4, 150 mM KCl, 1 h at room temperature; 1.5% agarose in 1x TBE + 10 mM KCl, run at 4 C; conditions: protein: recombinant; parallel G4-repeat
# T1 sequence (P08670 whole entry): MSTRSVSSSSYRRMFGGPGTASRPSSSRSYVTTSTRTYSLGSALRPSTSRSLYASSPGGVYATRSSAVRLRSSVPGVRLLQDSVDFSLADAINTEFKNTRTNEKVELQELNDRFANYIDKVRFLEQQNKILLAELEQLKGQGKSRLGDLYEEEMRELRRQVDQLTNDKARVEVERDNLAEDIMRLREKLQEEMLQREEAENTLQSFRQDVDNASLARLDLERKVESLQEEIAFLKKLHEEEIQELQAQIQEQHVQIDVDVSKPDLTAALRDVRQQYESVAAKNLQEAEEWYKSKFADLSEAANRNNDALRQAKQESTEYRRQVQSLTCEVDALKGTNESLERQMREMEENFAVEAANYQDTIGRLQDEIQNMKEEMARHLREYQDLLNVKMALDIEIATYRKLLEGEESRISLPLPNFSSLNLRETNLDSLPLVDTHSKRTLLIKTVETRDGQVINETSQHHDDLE
binder,measurement,setting,value
B1,binding result,"Vimentin [1]; intramolecular G4, mainly antiparallel",no binding
B2,binding result,Vimentin [2],binds
B3,binding result,Vimentin [3],binds
B4,binding result,"Vimentin [1]; G4, parallel and antiparallel components",no binding

# Source: article PMC9520404, “G-quadruplexes formation within the promoter of TEAD4 oncogene and their interaction with Vimentin”
